From patent US20260209365A1, “ANTI-COMMON GAMMA CHAIN PROTEINS AND COMPOSITIONS OF MATTER” (SINOMAB BIOSCIENCE LIMITED, priority 2023, published 2026)
Changes are numbered by the printed parent chain.

T1: human γc on cells (KHYG-1, Ramos, HPB-ALL, Jurkat, PBMC) (human) (UniProt P31785)
T1 sequence (looked up): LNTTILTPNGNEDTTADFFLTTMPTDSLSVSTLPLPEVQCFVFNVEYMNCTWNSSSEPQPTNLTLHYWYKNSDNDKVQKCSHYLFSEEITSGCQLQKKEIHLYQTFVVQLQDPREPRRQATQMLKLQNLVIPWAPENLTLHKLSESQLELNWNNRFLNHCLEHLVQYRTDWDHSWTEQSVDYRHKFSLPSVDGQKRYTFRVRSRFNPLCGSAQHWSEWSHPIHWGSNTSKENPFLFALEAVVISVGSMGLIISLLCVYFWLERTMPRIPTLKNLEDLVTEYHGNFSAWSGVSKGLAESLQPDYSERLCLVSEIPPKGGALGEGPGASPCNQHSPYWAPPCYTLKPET

B1: SM-05G anti-γc ScFv (scFv, part only; not given: linker and E-tag, not shown: small tags and cut ends)
scFv (part 1 of 2), part: EVQLQQSGPELVKPGASVKIFCKTSGYTFTEYTMHWVKQSHGESLEWIGGIDPNTGGVTYNQKFKGKATLTADSSSSTAYMELRNLTSEDSAVYYCARRRRYYGYALDYWGQGTSVTVSS
scFv (part 2 of 2), part: DVVMTQTPLSLPVNLGDQASISCRSSQSLVHSNGNTYLDWYLQKPGQSPKLLIYKVSNRFSGVPDRFSGSGSGTYFTLNFSRVEAEDLGVYYCFQGSHVPFTFGSGTKLEIKR
B2: SM-05A anti-γc ScFv (scFv, part only; not given: linker and E-tag, not shown: small tags and cut ends)
scFv (part 1 of 2), part: EVQLQQSGPELVKPGASVKISCKTSGYTFTEYTMHWVKQSHGKSLEWIGGIDPYNGGATYNQRFKGKATLTVDKSSSTAYMEFRSLTSEDSAVYYCARRRLYYGNALDYWGQGTSVTVSS
scFv (part 2 of 2), part: DVLMTQTPLSLPVSLGDQASISCRSSQSLVHSNGNTYLHWYLQRPGQSPKLLIYKVSSRFSGVPDRFSGSGSGTDFTLKISRVEAEDLGVYFCSQTTHVPFTFGSGTKLEIKR
B3: SM-05F anti-γc ScFv (scFv, part only; not given: linker and E-tag, not shown: small tags and cut ends)
scFv (part 1 of 2), part: B1 scFv (part 1 of 2), part with S74K, N85S
scFv (part 2 of 2), part: B1 scFv (part 2 of 2), part with V3L, N14S, L29I, S32N, D39E, S61F, N79K, F80I, F101W, S105G
B4: SM-05H anti-γc ScFv (scFv, part only; not given: linker and E-tag, not shown: small tags and cut ends)
scFv (part 1 of 2), part: B1 scFv (part 1 of 2), part with E1Q, V18M, K19N, V58A, K67Q, S74K, N85S
scFv (part 2 of 2), part: B2 scFv (part 2 of 2), part with S28N, L29I, V30I, H39E, R44K, S58N, S68T, T96S, S105G
B5: SM-05B anti-γc ScFv (scFv, part only; not given: linker and E-tag, not shown: small tags and cut ends)
scFv (part 1 of 2), part: B1 scFv (part 1 of 2), part with E1Q, V58A, S74K, N85S
scFv (part 2 of 2), part: B2 scFv (part 2 of 2), part with L29I, H39E, R44K, S58N, T96S, F101W, S105G
B6: SM-05I anti-γc ScFv (scFv, part only; not given: linker and E-tag, not shown: small tags and cut ends)
scFv (part 1 of 2), part: QVQLQQSGAELAKPGASVKLSCKASGYTFTEYTMHWVKQSHGESLDWIGGIDPNTGGATYNQRFKGKATMTVDKSSSTAYMEFRSLTSEDSAVYYCARRRRYYGYALDNWGQGTSVTVSS
scFv (part 2 of 2), part: B2 scFv (part 2 of 2), part with L29I, H39E, R44K, S58N, F92Y, S94F, T96D, T97S
B7: SM-05K anti-γc ScFv (scFv, part only; not given: linker and E-tag, not shown: small tags and cut ends)
scFv (part 1 of 2), part: EVQLLESGPELVKPGASVKISCKTSGYSFTDYFMNWVKQSHGESLEWIGGIDPNTGGVTYNQKFKGKATLTVDKSASTAYMELRSLTSEDSAVYYCARRRRYYGYAMDYWGQGTSVTVSS
scFv (part 2 of 2), part: B2 scFv (part 2 of 2), part with L29I, H39E, R44K, S58N, T96S, F101W, S105G
B8: SM-05E anti-γc ScFv (scFv, part only; not given: linker and E-tag, not shown: small tags and cut ends)
scFv (part 1 of 2), part: B1 scFv (part 1 of 2), part with Q3H, S74K, N85S
scFv (part 2 of 2), part: B2 scFv (part 2 of 2), part with L29I, H39E, R44K, S58N, R82S, T96S, T102M
B9: SM-05C anti-γc ScFv (scFv, part only; not given: linker and E-tag, not shown: small tags and cut ends)
scFv (part 1 of 2), part: B1 scFv (part 1 of 2), part with E1Q, V58A, S74K, N85S, L107M
scFv (part 2 of 2), part: B1 scFv (part 2 of 2), part with N14S, D39H, Y75D, N79K, F80I, V90I, G96D
B10: SM-05J anti-γc ScFv (scFv, part only; not given: linker and E-tag, not shown: small tags and cut ends)
scFv (part 1 of 2), part: B2 scFv (part 1 of 2), part with A58I, F83L, N105Y
scFv (part 2 of 2), part: B1 scFv (part 2 of 2), part with N14S, L29I, D39E, Y75D, N79K, F80I
B11: SM-05K: anti-γc antibody; CDR SEQ ID NO: 164, 166, 168, 172, 174, 176 (antibody, V domains shown)
VH: B7 scFv (part 1 of 2), part
VL: DVLMTQTPLSLPVSLGDQASISCRSSQSIVHSNGNTYLEWYLQKPGQSPKLLIYKVSNRFSGVPDRFSGSGSGTDFTLKISRVEAEDLGVYFCSQSTHVPWTFGGGTKLEIK
modifications: left off: another chain or arm of the molecule; small tags and cut ends
B12: SM-05J: anti-γc antibody; CDR SEQ ID NO: 148, 150, 152, 156, 158, 160 (antibody, V domains shown)
VH: B2 scFv (part 1 of 2), part with A58I, F83L, N105Y
VL: B11 VL with L3V, F92Y, S94F, S96G, T97S, W101F, G105S
modifications: left off: another chain or arm of the molecule; small tags and cut ends
B13: SM-05L: anti-γc antibody; CDR SEQ ID NO: 180, 182, 184, 188, 190, 192 (antibody, V domains shown)
VH: B2 scFv (part 1 of 2), part with Y54N, N55S, R63K, F83V, N105Y, L107M
VL: B11 VL with D17G, S28N, W101F, T102A, G105S
modifications: left off: another chain or arm of the molecule; small tags and cut ends

target: T1, human γc on cells (KHYG-1, Ramos, HPB-ALL, Jurkat, PBMC) (human); assay: cell-based or functional assay; conditions: not given

p-STAT5 inhibition (%), IL-7 induced, HPB-ALL T cells, flow cytometry [%] | p-STAT3 inhibition (%), IL-9 induced, Jurkat T cells, flow cytometry [%] | p-STAT3 inhibition (%), IL-21 induced, Ramos B cells, flow cytometry [%] | p-STAT5 inhibition (%), IL-15 induced, KHYG-1 NK cells, flow cytometry [%] | p-STAT6 inhibition (%), IL-4 induced, Ramos B cells, flow cytometry [%] | Molecule
0 |  |  |  |  | B1
100 | 80.6 | 47.3 | 48.6 | 86.1 | B2
99.4 | 92.4 | 79 | 43.7 | 46 | B3
100 | 93.1 | 70.6 | 51.7 | 63.4 | B4
94.5 | 82.6 | 13.8 | 47.1 | 77 | B5
 | 100 | 91 | 38.9 | 74.1 | B6
86 |  | 90.8 | 43 |  | B7
98.3 | 74.3 | 60.6 | 47.8 | 85.6 | B8
100 | 97.9 | 29.1 | 46 | 46 | B9
98.1 | 100 | 75.8 | 42.7 | 82.2 | B10

system: IL-15 induced STAT5 phosphorylation; assay: Inhibition of IL-15 induced STAT phosphorylation in KHYG-1 NK cell line, flow cytometry; format: cell-based, human; conditions: ScFv 10 μg/ml
Source text: (§1) Cells were harvested and stained with FITC conjugated anti-pSTAT6, PE conjugated anti-pSTAT3 or APC con jugated anti-pSTAT5 antibodies for flow cytometry analyses. In some embodiments, the purified ScFv could block the IL-4 induced STAT6 phosphorylation in cell culture (e.g., Ramos). In some embodiments, the purified ScFv could block the IL-7 induced STAT5 phosphorylation in cell culture (e.g., HPB-ALL). In some embodiments, the purified ScFv could block the IL-9 induced STAT3 phosphorylation in cell culture (e.g., Jurkat). In some embodiments, the purified ScFv could block the IL-15 induced STAT5 phosphorylation in cell culture (e.g., KHYG-1). In some embodiments, the purified ScFv could block the IL-21 induced STAT3 phosphorylation in cell culture (e.g., Ramos).
(§2) Flow cytometry was employed to measure the percentage of p-STAT expressing cells after cytokine induction and anti-γc ScFv treatment. KHYG-1 (Creative Bioarray, Shirley, NY 11967, USA) was starved in IL-2 free RPMI1640 (ATCC modification, ThermoFisher Scientific, Waltham, MA, USA) with 10% FBS (ThermoFisher Scientific) for 2 days. Ramos, HPB-ALL and Jurkat cell lines were used directly without starvation. Cells were replenished with fresh RPMI1640 medium and pretreated with anti-γc ScFv (10 μg/mL) for an hour. After treatment with TL-4 (10 ng/ml, Sino Biological), IL-7 (50 ng/ml, Sino Biological), IL-9 (50 ng/ml, Sino Biological), IL-15 (10 ng/ml, Sino Biological) or IL-21 (10 ng/ml, Sino Biological) for 15 min, cells were fixed in 4% paraformaldehyde (PFA, Sigma, St. Louis, Missouri, USA) for 10 min, permeabilized in 0.1% Triton X-100 (Sigma) for 10 min and then stained with FITC conjugated anti-pSTAT6, PE conjugated anti-pSTAT3 or APC con jugated anti-pSTAT5 (all diluted in 1:100, Biolegend, San Diego, California, USA) for 30 min at 37° C. Percentage of p-STAT expressing cells was measured by BD FACSLyric™ Clinical Flow Cytometry System (BD Biosciences, New Jersey, USA). Data were analyzed by Flowjo (version 10, BD).
(§3) Different cell lines were used for testing. KHYG-1 refers to the NK cell line harvested from the peripheral blood of a person with aggressive NK cell leukemia. This cell line could respond to IL-2 and IL-15 stimulation in-vitro [Yamasaki et al., Leuk Res., […]; 28 (10): 1023-31]. Ramos is a human Burkitts Lymphoma cell line (CRL-1596™) and could be used as a model for IL-4 and IL-21 studies [Hui et al., Front Immunol., 2022; 13: 919854]. Jurkat is a human T lymphoblast cell line (Clone E6-1, TIB-152™) and is widely used in the T cell studies of IL-9 function. HPB-ALL is a T cell leukemia model established from the peripheral blood of a child with ALL and thymoma at diagnosis in 1973 and could be used for IL-7 functional studies.

Molecule | p-STAT5 inhibition (%)
B11 | 42.97
B12 | 42.71
B13 | 49.10

system: IL-4 induced STAT6 phosphorylation; assay: Inhibition of IL-4 induced STAT phosphorylation in Ramos B cell line, flow cytometry; format: cell-based, human; conditions: ScFv 10 μg/ml
Source text: as §1, §2, §3

Molecule | p-STAT6 inhibition (%)
B12 | 82.22
B13 | 73.54

system: IL-21 induced STAT3 phosphorylation; assay: Inhibition of IL-21 induced STAT phosphorylation in Ramos B cell line, flow cytometry; format: cell-based, human; conditions: ScFv 10 μg/ml
Source text: as §1, §2, §3

Molecule | p-STAT3 inhibition (%)
B11 | 90.77
B12 | 75.77
B13 | 26.03

system: IL-7 induced STAT5 phosphorylation; assay: Inhibition of IL-7 induced STAT5 phosphorylation in HPB-ALL T cell line, flow cytometry; format: cell-based, human; conditions: ScFv 10 μg/ml
Source text: as §1, §2, §3

Molecule | p-STAT5 inhibition (%)
B11 | 86.02
B12 | 98.10
B13 | 100

system: IL-9 induced STAT3 phosphorylation; assay: Inhibition of IL-9 induced STAT3 phosphorylation in Jurkat T cell line, flow cytometry; format: cell-based, human; conditions: ScFv 10 μg/ml
Source text: as §1, §2, §3

Molecule | p-STAT3 inhibition (%)
B12 | 100
B13 | 92.36
